Percent of APOA1 remaining monomeric (oxidising conditions) and percent dimer (oxidising conditions) data for four substances are collected here from paper PMC12049944.

Holding throughout (assay): cross-linking; intermolecular disulfides between Cys residues introduced in helices 4 and 6 of APOA1 in rHDL; SDS-PAGE under reducing and oxidising conditions
Assay [1] deals with APOA1 double Cys mutant Y115C/E147C in rHDL (human).
In assay [2] the target is APOA1 double Cys mutant Y100C/M162C in rHDL (human).
Assay [3] concerns the target APOA1 double Cys mutant K107C/H155C in rHDL (human).
Assay [4] deals with APOA1 double Cys mutant M112C/M148C in rHDL (human).

“APOA1 double Cys mutant Y115C/E147C in rHDL” returned a percent of APOA1 remaining monomeric (oxidising conditions) in assay [1] of 10%.

For the substance “APOA1 double Cys mutant Y100C/M162C in rHDL (natural protein)”, the percent of APOA1 remaining monomeric (oxidising conditions) in assay [2] amounted to 10%.

In the case of “APOA1 double Cys mutant K107C/H155C in rHDL”, the percent of APOA1 remaining monomeric (oxidising conditions) in assay [3] was 10%.

For “APOA1 double Cys mutant M112C/M148C in rHDL”, the percent dimer (oxidising conditions) in assay [4] is 50%.
